B1: Stu2-HA (wild-type Stu2, 3xHA tagged) [S. cerevisiae] / γ-tubulin (Tub4) [S. cerevisiae (endogenous in yeast extract)] (parent)
chain 1: MSGEEEVDYTTLPLEERLTYKLWKARLEAYKELNQLFRNSVGDISRDDNIQIYWRDPTLFAQYITDSNVVAQEQAIVALNSLIDAFASSSLKNAHNITLISTWTPLLVEKGLTSSRATTKTQSMSCILSLCGLDTSITQSVELVIPFFEKKLPKLIAAAANCVYELMAAFGLTNVNVQTFLPELLKHVPQLAGHGDRNVRSQTMNLIVEIYKVTGNNSDLLEEILFKKLKPIQVKDLHKLFAKVGDEPSSSKMLFEWEKRELEKKRSQEEEARKRKSILSNDEGEYQIDKDGDTLMGMETDMPPSKQQSGVQIDTFSMLPEETILDKLPKDFQERITSSKWKDRVEALEEFWDSVLSQTKKLKSTSQNYSNLLGIYGHIIQKDANIQAVALAAQSVELICDKLKTPGFSKDYVSLVFTPLLDRTKEKKPSVIEAIRKALLTICKYYDPLASSGRNEDMLKDILEHMKHKTPQIRMECTQLFNASMKEEKDGYSTLQRYLKDEVVPIVIQIVNDTQPAIRTIGFESFAILIKIFGMNTFVKTLEHLDNLKRKKIEETVKTLPNFSIASGSTHSTIETNKQTGPMENKFLLKKSSVLPSKRVASSPLRNDNKSKVNPIGSVASASKPSMVAANNKSRVLLTSKSLATPKNVVANSTDKNEKLIEEYKYRLQKLQNDEMIWTKERQSLLEKMNNTENYKIEMIKENEMLREQLKEAQSKLNEKNIQLRSKEIDVNKLSDRVLSLENELRNMEIELDRNKKRNDTNLQSMGTISSYSIPSSTVSSNYGVKSLSSALPFKEEEDVRRKEDVNYERRSSESIGDLPHRVNSLNIRPYRKNGTGVSSVSDDLDIDFNDSFASEESYKRAAAVTSTLKARIEKMKAKSRREGTTRT
chain 2: MGGEIITLQAGQCGNHVGKFLWSQLAKEHAIGTDGLSQLPDSSTERDDDTKPFFRENSRNKFTPRAIMMDSEPSVIADVENTFRGFFDPRNTWVASDGASAGNSWANGYDIGTRNQDDILNKIDKEIDSTDNFEGFQLLHSVAGGTGSGLGSNLLEALCDRYPKKILTTYSVFPARSSEVVVQSYNTILALRRLIEDSDATVVFDNASLLNISGKVFRNPNIDLQHTNQLISTIISSVTNSIRFPSYMYSSMSSIYSTLIPSPELHFLSPSFTPFTSDYIHDDIAHKGHSSYDVMLDLLDPSNSLVSTAMNNPTYFNVYNTIIGNVEPRQISRAMTKLQQRIKFPSWSSSAMHVNIGRRSPYLPLQPNENEVSGMMLSNMSTVVNVFENACNTFDKVFAKGAFLNNYNVGDLFQSMQNVQDEFAESREVVQSLMEDYVAAEQDSYLDDVLVDDENMVGELEEDLDADGDHKLV

Variants of: B1
Assay: co-immunoprecipitation, western blot densitometry
Details: with γ-tubulin (Tub4) [S. cerevisiae (endogenous in yeast extract)], PBS buffer, three biological replicates, read off a plot; for screen value: parent: 0; for ratio to parent: parent: 1

Row | screen value | ratio to parent | Variant
1 | -0.6 | 0.9 | chain 1 K870Q
2 | 0.1 | 1.5 | chain 1 K870R
3 | -3 | – | chain 1 K252R K469R K870R
4 | 0.75 | 2.2 | chain 1 K469R
5 | 1.5 | 4 | chain 1 K469Q

Second part, the variant before the results:

Row | Variant | screen value | ratio to parent
6 | chain 1 K252Q K469Q K870Q | 1.8 | 5.5
7 | chain 1 K252Q K469Q | 1 | 2.5
8 | chain 1 K252Q | 1.8 | 7
9 | chain 1 K252R | -0.05 | 1.2
10 | chain 1 K252R K469R | -0.5 | 0.7

From publication PMC9491610
